Experimental data: a protein production outcome set (Wang et al. 2014)

Test: label from the status in PepcDB records
With “MTLSITSNFDAGAIDVVSCERADAIRLRVRGDNRSEFAQWFYFRLTGARGERCVMTFENANDCAYPAGWRDYRAVASYDRVNWFRVPTSYDGQMLTIDHTPEFDSIHYAYFEPYSEERHSEFLGAVQQMPQASVVELGRTVEGRPMSLVVLGTPDEAGAAKKKVWIIARQHPGESMAEWFIEGLVKRLVGWGDWSGDPVARKLYDHATFYIVPNMNPDGSVHGNLRTNAAGANLNREWMEPDAERSPEVLVVRDAIHAIGCDLFFDIHGDEDLPYVFAAGSEMLPGFTEQQRVEQSAFIDSFKRASPDFQDEHGYPPGKYREDAFKLASKYIGHRFGCLSLTLEMPFKDNANLPDEHIGWNGARSASLGAAMLGAILEHVRAFA” the protein production was “not failed”.
For “MTLSPNLRGALWMLASAVGFTVMTTLIKFLGDDYPAALQTFYRQLAGVLVLLPLIARDWRGAFRTTRPGIVIFRSSAGVLALIMSFYAYQKLPLADANALSFTRTLWLVPLAGLVLREPIGPRRISAALVGFVGVLIMLQPGAGGVEAWLGWPQLCALGAAFLFALTITGMKVMTRDHTPFVLLVYAAVLGLVFAIPPALFVWRWPTWPDLGLLAAMGVIGTLTQGAYIKGMEAGEAAVMAPVDYTRLVFAVIVGFLLFQEVPRTATVVGAVIVVGSTLFISWREHQLAKQAAAEPT”, the protein production was “failed”.
For “MTLTEQPQRIAILHSLYLEYFLALGTPPIASAGASTGDAMKALGEWETLKPYAGTAKIIDLGSARDLNLEAILGANPDVIVTFKGQGNLDKIYEQLEQIAPVILVDFSAPWQEQILACAEIVNKEADAQKLIKEIEDSVQSAKEKLSRLEHHHHHH”, the protein production was “failed”.
For “MTLTLNRQLLTSRQILVAFSGGLDSTVLLHQLVQWRTENPGVALRAIHVHHGLSANADAWVTHCENVCQQWQVPLVVERVQLAQEGLGIEAQARQARYQAFARTLLPGEVLVTAQHLDDQCETFLLALKRGSGPAGLSAMAEVSEFAGTRLIRPLLARTRGELVQWARQYDLRWIEDESNQDDSYDRNFLRLRVVPLLQQRWPHFAEATARSAALCAEQESLLDELLADDLAHCQSPQGTLQIVPMLAMSDARRAAIIRRWLAGQNAPMPSRDALVRIWQEVALAREDASPCLRLGAFEIRRYQSQLWWIKSVTGQSENIVPWQTWLQPLELPAGLGSVQLNAGGDIRPPRADEAVSVRFKAPGLLHIVGRNGGRKLKKIWQELGVPPWLRDTTPLLFYGETLIAAAGVFVTQEGVAEGENGVSFVWQKTLS”, the protein production was “not failed”.
In the case of “MTLTQLEIFALVAEMQGFTAAAARLGISQSGVSHAVRELERELGVELLQRRQGRVELTDIGRQLLPRASGMLGLAEAMRQEAADARGLRRGTLRIGSFGPTSSMRLLPALLARYRQQYPGIEVHIDEGPDEQVLQWLLERRVDIAFAVLPDPRFVCCPLVEDQMVAVLPAGHRLADRPRVTLAELCGEPFALSGAGSAELVMRLFQAARLQPNIRYRCGQLLSTLDTVARGDAVAIVAELSLPSRPHAEGYVGKPLQPAVRRQVGLALLDGDQASPAARAFLQIADRLRIEGGLAGLNARENGAA”, the protein production is reported as “not failed”.
In the case of “MTLVDDRLLESKMTKVEQARAWSPRVISKFETLIKSADDHSLYRVNPLAFARDRAIAEAEAIDLFLHAARCGLFDMSWDVLCPQSGMVLDSFGALRTLKTHYVCGLCDVSGDTDLDDFIEVTFSVSPKLRRLPYHDPETLPVEDFHWKLHFGHDGRLPGQDVRFLDVLRGFVRGMTFLPPGTTTVLRADLGPGALSGVNVQTQAAFAVPISGDRGLAPTLLKIDYDGKRFLPAMPAVPPGPIVIEVANRGPVRGSLLVINWPPELVALTTKPTLDFDPYVSGGALLARQTFRQLFRSERVDEKEGLGIRQITFLFTDLKGSTAMYERLGDLNAYALVREHFALVNAAVQQHSGAVVKTIGDAVMAVFSQPSDAISAALHVFEEIDRFNGDHDGPGIILKIGAHCGPSIAVTLNDNLDYFGQTVNVAARVQSLAEAGQICISEALYSAPGVREMLAGHRVVAFDAPLRGVQGDATVYRIMRE”, the protein production is reported as “failed”.
For “MTMETVESQHDGSITASLTESKSAHVQTQTGQNSIPALAQVAAIAETDESAESGGVIDSHKRREILSRRPSYRKILNELSSDVPGVPKIEEERSEEEGTPPSIATMAVPTSIYQTSTGQYIAIAQGGTIQISNPGSDGVQGLQALTMTNSGAPPPGATIVQYAAQSADGTQQFFVPGSQVVVQAATGDMPTYQIRAPTAALPQGVVMAASPGSLHSPQQLAEEATRKRELRLMKNREAAKECRRRKKE”, the protein production was “not failed”.
In the case of “MTMFGKIFSKKTPKTDIKSNGEALNASEIEQFIKDTLSHYISDNFPQGVLAVCQQLSITQKKKITIKLLMPFVCQGELDLLAQTLSENLARTVNFEIDLAIKPVRQFSLGNDKNKAGQEGMLQGKVANIIAIASGKGGVGKSTTTVNLAYALMCEGARVGILDADIYGPSIPSMLGLKNEKPSSSDGKLMTPVDAKGLSAMSIGFLVDEADATVWRGPMASSAFNQLLNETDWPELDYLLIDMPPGTGDIQLTLAQKVPVAAAVIVTTPQDIALIDAVKGIAMFDKVKVPVLGIVENMSYHLCENCGHKSHIFGEAGGEHMAEDHETKLLGQLPLDITIRQDADFGESDIIENSAGEIANHYRKIARNVSAQLFLQCDTASPLTATVAHKALEHHHHHH”, the protein production is reported as “not failed”.
In the case of “MTMQDILYYIHTYGLIVLFLIVVGEYCVPAMPTGIVMPAAGIIAGQAHKGIIKVMLISLIAGLVGSIILYLLGYFVGSTLLEKIKIKHPKIEDKLEKTEKILEKHSFLGIFICRLIPIIRTYVSLICGTVKVNFFKFIIFSIPGIFCWNFTGIVVGYFFGGKIRF”, the protein production is reported as “failed”.
With “MTMREYMLGNVAIARGLLEGGVQVIAGYPGTPSSEIIDTLASREDRDYHIEWSVNEKVAMEVAVGAAWTGVRSVVTMKHVGLNVAADPFMTLAYAGTKGGLIAIVADDPSCHSSQNEQDTRRYAQFALVPCFDPSTPQEAKDMLPYAFEFSEKFEIPVIFRPTTRISHGKSDIELGEIPAEKAVPHFEKLLDRWVMLPKNARPRHTHILSIQQAMEDELAESPWNSLEIKPGAKMGVIGSGIASVYAKEALQELGLEASFLKIGTYPVPKKLILELLSTVDTVLIFEELEPVVEEQVRILAQEAGLEVSVLGKEGGFVSREGELDVSAFLEALRKAFDLDIEPDSGKVPLELAPRPPSLCAGCSHRATFYSMKKVFGKDAIYPSDIGCYTLGIQSGTVETTLCMGSSISIASGLYHAGEKRPICCSIGDSTFFHTGMNSLLNAVFNKANITVTILDNRITAMTGHQPNPGVGFTVTGEPTVEVSLAELCKAMGAGFVTVVDPYNLEETQEAFKAAKEFEGTAVVIAKQPCVISGKRAGIKRVPYIVDPEKCEGCKQCVKFGCPAIEFDEENKCAVITSLCSGCGVCAQICKFDAIREVKR” the protein production was “failed”.
For “MTNAEAVTVTNKQIIFPDYVTGFPKESDLKITTTTIDLRLPEGSTSVLVKNLYLSCDPYMRICMGKPDPLSSSLVPPYKTGVPIIGLGVSKVIDSGHPDYKKGDLLWGLVGWEEYSVITLTTYSHFKIEHTDVPLSYYTGLLGMPGMTAYAGFYEVCSPKKGETVFVSAASGAVGQLVGQFAKLMGCYVVGSAGSKEKVYLLKTKFGFDDAFNYKEEKDFSAALKRYFPEGIDIYFENVGGKMLDAVLINMKLHGRVAVCGMISQYNLVDPEGVHNLPTILYKRIQLQGFGVCDFYDKYPKFLDFVLPYIREGKITYVEDIAEGFESGPSALLGLFEGKNVGKQLFVVARE”, the protein production was “failed”.
In the case of “MTNAISNFTIYAFVALGGACGASLRFYISQLVLNWLGKGFPFATLMVNIIGSFTMGLLYQLIEHEILNVSVHRTLIGIGFLGAFTTFSTFSLDSLLLLQQGDVLKAAINILLNVSLCIAAAALGMFMVTTLTK”, the protein production is reported as “failed”.
With “MTNFTQSINFPGSLPLTRNLLAAACFFAMTQASAAGFISDVKQISDQEVRSGEGYYRADGKWLVYQAEVAGENPFYQIYLKNIASGEVQQVSPGIGKTTCSWVHPIQEKVLFSSTHEDPEAKAKMTTEIEQRKSGQRRSYAWDYDEFYDIYETDFAGGNIRNLTHTKGYDAEASWSPDGRLIAFASNRRAYSEPLSEAETVLFSNDPSSMIDIYIMDADGSNVKRLTHTNSYDGGPFFSPDGKRIVWRRFSENGQEAEIFTMNTDGSDQKQITRLNKMSWAPFYHPSNQYIIFATNVHGHRNFELYIVDIDGKKEPVRVTDEEGFDGLPVFTPDGQYITWTSDRTPDHKGRLFHGKWDHKKALESLGLE” the protein production was “failed”.
With “MTNHQHPQTTTQWIDLIANSELPAITSTARMLDKFSNDDKSSLPKLSEAILHDQGLSSCLLKVANNIQHISINKVTTVSRASVVLGIQSVKNICLTAKLVSSLLASKSLDINVYEQLTQLMANSFYAGMLAKMMVPNYSEEIQEEVYLAAMLYRIGESAFWSAGGDVAKKLANYEAKSPQDFNQYCRKEMGTNFSELSKGLAGTWNLSDLLIKALDQPTTRTDEVKVIYFADKLSAIIAKPEGCEEDYHKLLKEIAYIVGISVRQLTVRIEHTREQAEKLLSSYGAEILTERINSLPTAEDFKSLGGDFDTREVVSKDKALLNGFMKLTKLIQNSKDFNEYLQLTLESLALTFAFDRSSFLMLVDDRARVKSRLVVNKNAQDDASKINIDIKHSDNVIARVISTDTAALINDHQEIRWRDLVTEEISEVIVEGAIAFVPVKIGGKAIGVICLQLLSPDQKIETQDFQQICAFIDHLNMCLTMIKYS” the protein production was “failed”.
In the case of “MTNITPEAKNTNRHSVLLVEKEGRNLARKYHQVLVEELTIIKQGYKTFSSKNIAIPSGFWYHYDTSLTDSYENAKSECFYIPNDNQNYPLQEMRRDCKEYERVEKQVVFKNNKNNELNELPKYLNNAKKY”, the protein production is reported as “failed”.
For “MTNLEAKENNLIKDLASKQRVAIAYSGGIDSTYLLKVAVDELGKDNVLAMVVNSELFLDDEYNKALELAKDLGANAMGVSMSELADERIAANTPESWYYSKQLLYRTIKKAAAEKGFDIVLDGMIMDDNADFRPGMKARTEEGIVSSLQDADLYKSEIRELAKDRGISNWNKVASC”, the protein production was “not failed”.
For “MTNMKTHAREWAALDKSACFLFCSGDNDVAQQLGHAIGDLGLLTQELPEPEQLARRLADIDPQVVFLDFTGGQADPGKLLLAADLARVLARVAPAVPRVAVGYLAQPDGAIAALRAGVSDFVDPSVSPDEVHGVVQRLVSNRRIGGGSGGEHRSVLILGARPGVGASTLAVHMAGLTQERMAQAALARQGAVAGKPARSAEVMAAQLPLSDRVGVLDLGWPIGDCLLYLNISSDFDFAEAARNLSRLDGTLLNSAMAHTASGVSALALPREVEQVRALSPNDSLLLFERLRQHYGTLVTDAGGLANPEFVAKLARASHETWLVTDQSVSALVSLAGAVQELEQFHVEKSALRLVVNRYDERYGMSAAQIAERFGLELAGTLPDRTLSLMVCTNQGRLLHEQAERDIYVRAVQTLVDRLLAGSEAPRARHNSWLANWLPGVHRLTNVVESLEHHHHHH”, the protein production was “failed”.
In the case of “MTNNEYTDISNKETDVSPANIEQLKSVSMIWFVPFVALLIGAWMIYYQLSNEGPVITIAFDSAEGMEIGKTKIKSYNVDIGEVSNIVLNENADGVIVTARMTKNAEKLLNKNSDFWLVSPEISHTGISGLSTLISGVYIEFYPSSIHEEEVDELTSEFIALKDPPVTPPGAPGLHLTLNSNDQFAYSKGDPIIYKGLTVGQFEHIHFNFEERVVYYNAFIKAPYHQLVTTNTKFWDVSGLRMDLTADGLSIQTGNIETMLTNGVTFDVPKGMENGEEITERSYFDIYANYKEADDERYKYSVEYIVLVSNTIRGLSVGAPVEYRGVLIGHVKSINLLAQRNSDRPQIFDEDIKIPILISLQPGRVGLPDNEMGVSLMKQQHQLWIKDGLRASLKTGSLLTGSLFIDFQHYSDLNNEEENTQRTDFENSQYGEYTIIPSVDDEFSQITAKASQFIDNLNALPLEKISGNTNELITEFTQTAKSFQSVSDNLSGVLDGVNQQQLTQELKTTLQSYTKLSKDLSAGSKGYEDLRQTLSALTKVMNELQPLLNQLKHQPNGLIFESGKVDAIEPKKYTPNKKAE”, the protein production is reported as “failed”.
With “MTNTTYVQEYHAIVEVLSKYNEGGKKADSTIMRPAFSSQATIFGVDVDNKLTGGPIQGLFDVIDNVFHPSPEAKAAIARIDIVGTAASARIDTDDISGFRFTDFFNLLKVEGKWTVVSKIYHTHPSA” the protein production was “not failed”.
